In article PMC9012456 (Science Advances, 2022):

B1: KaiC T432V mutant (KaiC-SV) (natural protein)
chain: MTSAEMTSPNNNSEHQAIAKMRTMIEGFDDISHGGLPIGRSTLVSGTSGTGKTLFSIQFLYNGIIEFDEPGVFVTFEETPQDIIKNARSFGWDLAKLVDEGKLFILDASPDPEGQEVVGGFDLSALIERINYAIQKYRARRVSIDSVTSVFQQYDASSVVRRELFRLVARLKQIGATTVMTTERIEEYGPIARYGVEEFVSDNVVILRNVLEGERRRRTLEILKLRGTSHMKGEYPFTITDHGINIFPLGAMRLTQRSSNVRVSSGVVRLDEMCGGGFFKDSIILATGATGTGKTLLVSRFVENACANKERAILFAYEESRAQLLRNAYSWGMDFEEMERQNLLKIVCAYPESAGLEDHLQIIKSEINDFKPARIAIDSLSALARGVSNNAFRQFVIGVTGYAKQEEITGLFTNTSDQFMGAHSITDSHISVITDTIILLQYVEIRGEMSRAINVFKMRGSWHDKAIREFMISDKGPDIKDSFRNFERIISGSPTRITVDEKSELSRIVRGVQEKGPES

Legend:
[1] = target: B1; experiment: SEC-MALS
crystal structure = target: the molecule itself; experiment: crystal structure

binding result [1] | Binder | stoichiometry N (crystal structure) | other results
binds | KaiA (natural protein) MLSQIAICIWVESTAILQDCQRALSADRYQLQVCESGEMLLEYAQTHRDQIDCLILVAANPSFRAVVQQLCFEGVVVPAIVVGDRDSEDPDEPAKEQLYHSAELHLGIHQLEQLPYQVDAALAEFLRLAPVETMADHIMLMGANHDPELSSQQRDLAQRLQERLGYLGVYYKRDPDRFLRNLPAYESQKLHQAMQTSYREIVLSYFSPNSNLNQSIDNFVNMAFFADVPVTKVVEIHMELMDEFAKKLRVEGRSEDILLDYRLTLIDVIAHLCEMYRRSIPRET |  | 
 | KaiC-pSpT (KaiC fully phosphorylated at S431 and T432) (natural protein, phosphorylated S431 (pS431), phosphorylated T432 (pT432)) MTSAEMTSPNNNSEHQAIAKMRTMIEGFDDISHGGLPIGRSTLVSGTSGTGKTLFSIQFLYNGIIEFDEPGVFVTFEETPQDIIKNARSFGWDLAKLVDEGKLFILDASPDPEGQEVVGGFDLSALIERINYAIQKYRARRVSIDSVTSVFQQYDASSVVRRELFRLVARLKQIGATTVMTTERIEEYGPIARYGVEEFVSDNVVILRNVLEGERRRRTLEILKLRGTSHMKGEYPFTITDHGINIFPLGAMRLTQRSSNVRVSSGVVRLDEMCGGGFFKDSIILATGATGTGKTLLVSRFVENACANKERAILFAYEESRAQLLRNAYSWGMDFEEMERQNLLKIVCAYPESAGLEDHLQIIKSEINDFKPARIAIDSLSALARGVSNNAFRQFVIGVTGYAKQEEITGLFTNTSDQFMGAHSITDSHISTITDTIILLQYVEIRGEMSRAINVFKMRGSWHDKAIREFMISDKGPDIKDSFRNFERIISGSPTRITVDEKSELSRIVRGVQEKGPES | 6 | 
 | KaiC-pST (KaiC phosphorylated at S431 only) (natural protein, phosphorylated S431 (pS431)) MTSAEMTSPNNNSEHQAIAKMRTMIEGFDDISHGGLPIGRSTLVSGTSGTGKTLFSIQFLYNGIIEFDEPGVFVTFEETPQDIIKNARSFGWDLAKLVDEGKLFILDASPDPEGQEVVGGFDLSALIERINYAIQKYRARRVSIDSVTSVFQQYDASSVVRRELFRLVARLKQIGATTVMTTERIEEYGPIARYGVEEFVSDNVVILRNVLEGERRRRTLEILKLRGTSHMKGEYPFTITDHGINIFPLGAMRLTQRSSNVRVSSGVVRLDEMCGGGFFKDSIILATGATGTGKTLLVSRFVENACANKERAILFAYEESRAQLLRNAYSWGMDFEEMERQNLLKIVCAYPESAGLEDHLQIIKSEINDFKPARIAIDSLSALARGVSNNAFRQFVIGVTGYAKQEEITGLFTNTSDQFMGAHSITDSHISTITDTIILLQYVEIRGEMSRAINVFKMRGSWHDKAIREFMISDKGPDIKDSFRNFERIISGSPTRITVDEKSELSRIVRGVQEKGPES | 6 | 
 | B1 |  | binding result (crystal structure): binds
binds | KaiB (natural protein) MSPRKTYILKLYVAGNTPNSVRALKTLKNILEVEFQGVYALKVIDVLKNPQLAEEDKILATPTLAKVLPLPVRRIIGDLSDREKVLIGLDLLYGELQDSDDF |  | 
